Measured values as given in patent publication CN117567625A (INST MED BIOTECHNOLOGY CAMS, dated 2024).

Target: T1, Claudin18.2 on 人胃癌NUGC4细胞 (human, UniProt P56856-2 1-261)
T1 construct: whole, on cells
T1 sequence (looked up): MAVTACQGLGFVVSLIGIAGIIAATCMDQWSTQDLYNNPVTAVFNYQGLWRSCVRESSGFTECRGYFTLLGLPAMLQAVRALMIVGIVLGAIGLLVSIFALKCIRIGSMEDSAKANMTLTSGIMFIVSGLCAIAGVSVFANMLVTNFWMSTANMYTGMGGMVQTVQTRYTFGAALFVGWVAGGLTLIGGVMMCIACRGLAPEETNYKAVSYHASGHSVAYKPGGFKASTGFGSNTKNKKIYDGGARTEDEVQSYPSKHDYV
Test: flow cytometry on NUGC4 cells, anti-mouse IgG Fc-FITC

B1: 抗Claudin18.2小鼠单克隆抗体m1D6 (antibody, V domains shown)
VH: QVQLQQPGPELVMPGASVKLSCKASGYTFTSYRMHWVKQRPGQGLEWIGEIDPSNSYTNYNQNFRGRSTLTVDKSSSTAYMQLSSLTSGDSAVYYCARLGRGNTLGYWGQGTSVTVSS
VL: DIVMTQSPSSLTVTAGEKVTVGCKSSQSLLNSGNQKNYLTWYQQKPGQPPKLLIYWASTRESGVPDRFTGSGSGTDFTLTIRSVQAEDLAVYYCQNGYSYPFTFGSGTKLEIKR
notes: Both printed entries appear to start with a leader peptide ahead of the variable region; For in vivo imaging the antibody was labelled with Dylight680
binding result: binds
